Measurements published in US20030092095.
Substitutions are numbered along the chain they refer to. In names and notes the source's numbering stands.

T1: GST-RIZ332 (GST fusion of human RIZ1 residues 1-332)
T1 chain: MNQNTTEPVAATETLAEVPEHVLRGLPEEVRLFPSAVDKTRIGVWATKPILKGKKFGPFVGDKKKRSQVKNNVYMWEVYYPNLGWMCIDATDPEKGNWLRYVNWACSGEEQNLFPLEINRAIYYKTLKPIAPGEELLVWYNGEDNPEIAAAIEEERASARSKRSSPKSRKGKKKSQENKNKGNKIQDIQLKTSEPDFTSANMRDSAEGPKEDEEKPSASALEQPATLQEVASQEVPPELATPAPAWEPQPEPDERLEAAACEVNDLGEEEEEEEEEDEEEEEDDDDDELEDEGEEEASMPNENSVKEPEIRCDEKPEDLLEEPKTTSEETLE

B1: GSTRIZPBD, GST-hRIZ1(1514-1680) (GST fusion of the PR-binding domain of human RIZ1) (protein)
chain: HRRRTADAEIKMQSMQTPLGKTRARSSGPTQVPLPSSSFRSKQNVKFAASVKSKKPSSSSLRNSSPIRMAKITHVEGKKPKAVAKNHSAQLSSKTSRSLHVRVQKSKAVLQSKSTLASKKRTDRFNIKSRERSGGPVTRSLQLAAAADLSENKREDGSAKQELKDFS
B2: full length RIZ1 protein expressed in mammalian cells from adenovirus AdRIZ1 (protein)
chain: MNQNTTEPVAATETLAEVPEHVLRGLPEEVRLFPSAVDKTRIGVWATKPILKGKKFGPFVGDKKKRSQVKNNVYMWEVYYPNLGWMCIDATDPEKGNWLRYVNWACSGEEQNLFPLEINRAIYYKTLKPIAPGEELLVWYNGEDNPEIAAAIEEERASARSKRSSPKSRKGKKKSQENKNKGNKIQDIQLKTSEPDFTSANMRDSAEGPKEDEEKPSASALEQPATLQEVASQEVPPELATPAPAWEPQPEPDERLEAAACEVNDLGEEEEEEEEEDEEEEEDDDDDELEDEGEEEASMPNENSVKEPEIRCDEKPEDLLEEPKTTSEETLEDCSEVTPAMQIPRTKEEANGDVFETFMFPCQHCERKFTTKQGLERHMHIHISTVNHAFKCKYCGKAFGTQINRRRHERRHEAGLKRKPSQTLQPSEDLADGKASGENVASKDDSSPPSLGPDCLIMNSEKASQDTINSSVVEENGEVKELHPCKYCKKVFGTHTNMRRHQRRVHERHLIPKGVRRKGGLEEPQPPAEQAQATQNVYVPSTEPEEEGEADDVYIMDISSNISENLNYYIDGKIQTNNNTSNCDVIEMESASADLYGINCLLTPVTVEITQNIKTTQVPVTEDLPKEPLGSTNSEAKKRRTASPPALPKIKAETDSDPMVPSCSLSLPLSISTTEAVSFHKEKSVYLSSKLKQLLQTQDKLTPAGISATEIAKLGPVCVSAPASMLPVTSSRFKRRTSSPPSSPQHSPALRDFGKPSDGKAAWTDAGLTSKKSKLESHSDSPAWSLSGRDERETVSPPCFDEYKMSKEWTASSAFSSVCNQQPLDLSSGVKQKAEGTGKTPVQWESVLDLSVHKKHCSDSEGKEFKESHSVQPTCSAVKKRKPTTCMLQKVLLNEYNGIDLPVENPADGTRSPSPCKSLEAQPDPDLGPGSGFPAPTVESTPDVCPSSPALQTPSLSSGQLPPLLIPTDPSSPPPCPPVLTVATPPPPLLPTVPLPAPSSSASPHPCPSPLSNATAQSPLPILSPTVSPSPSPIPPVEPLMSAASPGPPTLSSSSSSSSSSSSFSSSSSSSSPSPPPLSAISSVVSSGDNLEASLPMISFKQEELENEGLKPREEPQSAAEQDVVVQETFNKNFVCNVCESPFLSIKDLTKHLSIHAEEWPFKCEFCVQLFKDKTDLSEHRFLLHGVGNIFVCSVCKKEFAFLCNLQQHQRDLHPDKVCTHHEFESGTLRPQNFTDPSKAHVEHMQSLPEDPLETSKEEEELNDSSEELYTTIKIMASGIKTKDPDVRLGLNQHYPSFKPPPFQYHHRNPMGIGVTATNFTTHNIPQTFTTAIRCTKCGKGVDNMPELHKHILACASASDKKRYTPKKNPVPLKQTVQPKNGVVVLDNSGKNAFRRMGQPKRLNFSVELSKMSSNKLKLNALKKKNQLVQKAILQKNKSAKQKADLKNACESSSHICPYCNREFTYIGSLNKHAAFSCPKKPLSPPKKKVSHSSKKGGHSSPASSDKNSNSNHRRRTADAEIKMQSMQTPLGKTRARSSGPTQVPLPSSSFRSKQNVKFAASVKSKKPSSSSLRNSSPIRMAKITHVEGKKPKAVAKNHSAQLSSKTSRSLHVRVQKSKAVLQSKSTLASKKRTDRFNIKSRERSGGPVTRSLQLAAAADLSENKREDGSAKQELKDFSYSLRLASRCSPPAAPYITRQYRKVKAPAAAQFQGPFFKE
B3: GST-RIZ200 (GST fusion of human RIZ1 residues 1-200) (protein)
chain: MNQNTTEPVAATETLAEVPEHVLRGLPEEVRLFPSAVDKTRIGVWATKPILKGKKFGPFVGDKKKRSQVKNNVYMWEVYYPNLGWMCIDATDPEKGNWLRYVNWACSGEEQNLFPLEINRAIYYKTLKPIAPGEELLVWYNGEDNPEIAAAIEEERASARSKRSSPKSRKGKKKSQENKNKGNKIQDIQLKTSEPDFTSA
B4: GST-RIZ200 point mutant C106Y (protein)
chain: B3 chain with C106Y
B5: GST-RIZ200 point mutant A159V (protein)
chain: B3 chain with A159V
B6: GST-RIZ200 point mutant I188V (protein)
chain: B3 chain with I188V
B7: GST-RIZ161 (GST fusion of human RIZ1 residues 1-161) (protein)
chain: MNQNTTEPVAATETLAEVPEHVLRGLPEEVRLFPSAVDKTRIGVWATKPILKGKKFGPFVGDKKKRSQVKNNVYMWEVYYPNLGWMCIDATDPEKGNWLRYVNWACSGEEQNLFPLEINRAIYYKTLKPIAPGEELLVWYNGEDNPEIAAAIEEERASARS
B8: GST-RIZ332 (GST fusion of human RIZ1 residues 1-332) (protein)
chain: T1 chain

How the values were obtained:
[1] = biological target: T1, GST-RIZ332 (GST fusion of human RIZ1 …)
[2] = biological target: histone H4 (free histones acid-extracted from human cancer cells A549 or U2OS), P62805
[3] = biological target: H3 N terminus 1-20 residue peptide (non-acetylated), P68431
[4] = biological target: H3 N terminus 1-20 residue peptide acetylated on K9 and K14, P68431
[5] = biological target: histone H1 (free histones acid-extracted from human cancer cells A549 or U2OS), P07305
[6] = biological target: histone H3 (free histones acid-extracted from human cancer cells A549 or U2OS), P68431

Chain of histone H1 (free histones acid-extracted from human cancer cells A549 or U2OS), P07305 (P07305 whole entry, looked up): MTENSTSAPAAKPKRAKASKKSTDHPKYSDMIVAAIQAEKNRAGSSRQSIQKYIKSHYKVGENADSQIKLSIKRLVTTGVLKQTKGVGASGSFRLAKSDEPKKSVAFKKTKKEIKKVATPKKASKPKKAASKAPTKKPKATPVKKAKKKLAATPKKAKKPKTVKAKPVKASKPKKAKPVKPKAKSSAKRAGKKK

Row | Protein | histone methyltransferase activity in vitro (3H-SAM, SDS-PAGE, fluorography) [2] | other results
1 | B1 | GSTRIZPBD protein alone showed HMT activity, specifically on H4 | histone methyltransferase activity in vitro with both proteins present [1]: A synergistic enhancement (more than additive effects) of HMT activity was observed when GSTRIZ322 and GSTRIZPBD were both present in HMT reactions
2 | B2 |  | in vitro peptide methylation by RIZ1, then HPLC purification and sequencing (H1 peptide (aa 15-37)): A H1 peptide (aa 15-37) was methylated by RIZ1 in vitro ... lysine 25 was methylated by RIZ1; in vitro peptide methylation by immunoprecipitated RIZ1, then peptide sequencing [3]: A peptide consisting the N-terminal 1-20 residues of H3 was indeed methylated in vitro by immunoprecipitated RIZ1 protein ... A single radioactive peak at lysine 9 was observed; in vitro peptide methylation by immunoprecipitated RIZ1 [4]: a peptide containing acetylated K9 and K14 was not methylated; histone methyltransferase activity of RIZ1 immunoprecipitates on free histones [5]: Immunoprecipitated products by RIZ1 serum from RIZ1-expressing extracts caused methylation of H1, H3, and H4; histone methyltransferase activity of RIZ1 immunoprecipitates on free histones [6]: Immunoprecipitated products by RIZ1 serum from RIZ1-expressing extracts caused methylation of H1, H3, and H4; histone methyltransferase activity of RIZ1 immunoprecipitates on free histones [2]: Immunoprecipitated products by RIZ1 serum from RIZ1-expressing extracts caused methylation of H1, H3, and H4
3 | B3 | Specific labeling of histone H4 was observed in the presence of purified GST product consisting of residues 1-200 of RIZ1 | 
4 | B4 | missense mutations found in tumors, C106Y, I188V, and A159V, abolished HMT activity | 
5 | B5 | missense mutations found in tumors, C106Y, I188V, and A159V, abolished HMT activity | 
6 | B6 | missense mutations found in tumors, C106Y, I188V, and A159V, abolished HMT activity | 
7 | B7 | GST alone or a protein consisting of residues 1-161 lacked HMT activity | 
8 | B8 | A GST fusion protein expressing the N-terminal 332-residue peptide showed similar activities to the N-terminal 200-residue peptide in methylating H4 | 
